Assay [1] addresses proteins in FBS (bovine (fetal bovine serum)). The assay is described as follows: fluorescence polarisation. Background: Polarisation of emitted light reports the rotation of a fluorescent probe.
The target of assay [2] is LgBit, an 18-kDa subunit of NanoLuc. Nature of the assay: split reporter.

As usually defined, the Kd is the constant that tells how readily two partners part at equilibrium. Read a high Kd as weaker binding. Regarding FITC-labeled CPP12 (peptide), in assay [1], the Kd amounted to 29 µM. Still for that read-out and setting: the same measure for NF-labeled CPP12 (peptide): 1.3 µM. In turn, CPP12-HiBit conjugate (peptide) yielded a fold induction of luminescence at 10 μM in assay [2] of 200 fold.

As for TMR-labeled CPP12 (peptide), in assay [1], the dissociation constant (Kd) came to 27 µM. In other words, the double-digit micromolar range.

The values are drawn from article PMC9175492.
